{"source": "patent US20170267778A1", "about": "(ADC THERPEUTICS S A, published 2017)", "binders": {"B1": {"name": "Ab2 (antibody, V domains shown)", "VH": "EVQLVQSGAEVKKPGESLKISCKISGYIFTDHAIHWVRQMPGKGLEWMGHFSPGNTDIKYNDKFKGQVTLSVDRSINTAYLQWSSLKASDTAIYFCKTSTFFFDYWGQGTRVTVSS", "VL": "DIVMTQSPDSLAVSLGERATINCKSSQSLLNSGDQKNYLTWYQQKPGQPPKLLIYWASTRESGVPDRFSGSGSGTDFTLTISSLQAEDVAVYYCQNDYSYPLTFGQGTKVEIK", "notes": "Expressed as human IgG1/kappa from pFUSE-CHIg-hG1 and pFUSE2-CLIg-hk vectors; also called 5E5RHB10 / 5E5RKA"}, "B2": {"name": "Ab3 (antibody, V domains shown)", "VH": "EVQLVESGAEVKKPGASVEVSCQASGYTFTDHAIHWVRQAPGQGLEWMGHFSPGNTDIKYNDKFKGRVTMTVDRSINTAYMELRRLRSDDTAVYYCKTSTFFFDYWGQGTMVTVSS", "VL": "B1 VL", "notes": "Expressed as human IgG1/kappa from pFUSE-CHIg-hG1 and pFUSE2-CLIg-hk vectors; also called 5E5RHC9 / 5E5RKA"}, "B3": {"name": "Ab4 (antibody, human IgG1, V domains shown)", "VH": "QVQLVQSGAEVKKTGSSVKVSCKASGYTFTDHAIHWVRQAPGQALEWMGHFSPGNTDIKYNDKFKGRVTLTVDRSMSTAYMELSSLRSEDTAMYYCKTSTFFFDYWGQGTMVTVSS", "VL": "DIVMTQSPLSLPVTPGEPASISCKSSQSLLNSGDQKNYLTWYLQKPGQSPQLLIYWASTRESGVPDRFSGSGSGTDFTLKISRVEAEDVGVYYCQNDYSYPLTFGGGTKVEIK", "notes": "Expressed as human IgG1/kappa from pFUSE-CHIg-hG1 and pFUSE2-CLIg-hk vectors; also called 5E5RHA8 / 5E5RKB"}, "B4": {"name": "Ab1 (antibody, V domains shown)", "VH": "B3 VH", "VL": "B1 VL", "notes": "Expressed as human IgG1/kappa from pFUSE-CHIg-hG1 and pFUSE2-CLIg-hk vectors; also called 5E5RHA8 / 5E5RKA"}, "B5": {"name": "Ab6 (antibody, human IgG1, V domains shown)", "VH": "B2 VH", "VL": "B3 VL", "notes": "Expressed as human IgG1/kappa from pFUSE-CHIg-hG1 and pFUSE2-CLIg-hk vectors; also called 5E5RHC9 / 5E5RKB"}, "B6": {"name": "Ab5 (antibody, human IgG1, V domains shown)", "VH": "B1 VH", "VL": "B3 VL", "notes": "Expressed as human IgG1/kappa from pFUSE-CHIg-hG1 and pFUSE2-CLIg-hk vectors; also called 5E5RHB10 / 5E5RKB"}, "B7": {"name": "Mouse 5E5 (antibody, V domains shown)", "VH": "QVQLQQSDAELVKPGSSVKISCKASGYTFTDHAIHWVKQKPEQGLEWIGHFSPGNTDIKYNDKFKGKATLTVDRSSSTAYMQLNSLTSEDSAVYFCKTSTFFFDYWGQGTTLTVSS", "VL": "DIVMTQSPSSLTVTAGEKVTMICKSSQSLLNSGDQKNYLTWYQQKPGQPPKLLIFWASTRESGVPDRFTGSGSGTDFTLTISSVQAEDLAVYYCQNDYSYPLTFGAGTKLELK", "notes": "V regions were subcloned into pFUSE-CHIg-hG1 (human IgG1) and pFUSE2-CLIg-hk (human kappa) vectors and expressed in HEK293 cells; also called mouse 5E5 antibody; 5E5VH/5E5VK"}}, "data": [{"target": "T1, Tn-MUC1 on ZR-75-1 cells (human, UniProt P15941 24-1255, Tn glycoform (GalNAcα1-O-Ser/Thr) as expressed by the cells)", "T1 construct": "whole, on cells; also called ZR-75-1 cell line, which expresses Tn-MUC1; Tn-MUC1(+ve) cell line ZR75-1", "T1 sequence (P15941 24-1255)": "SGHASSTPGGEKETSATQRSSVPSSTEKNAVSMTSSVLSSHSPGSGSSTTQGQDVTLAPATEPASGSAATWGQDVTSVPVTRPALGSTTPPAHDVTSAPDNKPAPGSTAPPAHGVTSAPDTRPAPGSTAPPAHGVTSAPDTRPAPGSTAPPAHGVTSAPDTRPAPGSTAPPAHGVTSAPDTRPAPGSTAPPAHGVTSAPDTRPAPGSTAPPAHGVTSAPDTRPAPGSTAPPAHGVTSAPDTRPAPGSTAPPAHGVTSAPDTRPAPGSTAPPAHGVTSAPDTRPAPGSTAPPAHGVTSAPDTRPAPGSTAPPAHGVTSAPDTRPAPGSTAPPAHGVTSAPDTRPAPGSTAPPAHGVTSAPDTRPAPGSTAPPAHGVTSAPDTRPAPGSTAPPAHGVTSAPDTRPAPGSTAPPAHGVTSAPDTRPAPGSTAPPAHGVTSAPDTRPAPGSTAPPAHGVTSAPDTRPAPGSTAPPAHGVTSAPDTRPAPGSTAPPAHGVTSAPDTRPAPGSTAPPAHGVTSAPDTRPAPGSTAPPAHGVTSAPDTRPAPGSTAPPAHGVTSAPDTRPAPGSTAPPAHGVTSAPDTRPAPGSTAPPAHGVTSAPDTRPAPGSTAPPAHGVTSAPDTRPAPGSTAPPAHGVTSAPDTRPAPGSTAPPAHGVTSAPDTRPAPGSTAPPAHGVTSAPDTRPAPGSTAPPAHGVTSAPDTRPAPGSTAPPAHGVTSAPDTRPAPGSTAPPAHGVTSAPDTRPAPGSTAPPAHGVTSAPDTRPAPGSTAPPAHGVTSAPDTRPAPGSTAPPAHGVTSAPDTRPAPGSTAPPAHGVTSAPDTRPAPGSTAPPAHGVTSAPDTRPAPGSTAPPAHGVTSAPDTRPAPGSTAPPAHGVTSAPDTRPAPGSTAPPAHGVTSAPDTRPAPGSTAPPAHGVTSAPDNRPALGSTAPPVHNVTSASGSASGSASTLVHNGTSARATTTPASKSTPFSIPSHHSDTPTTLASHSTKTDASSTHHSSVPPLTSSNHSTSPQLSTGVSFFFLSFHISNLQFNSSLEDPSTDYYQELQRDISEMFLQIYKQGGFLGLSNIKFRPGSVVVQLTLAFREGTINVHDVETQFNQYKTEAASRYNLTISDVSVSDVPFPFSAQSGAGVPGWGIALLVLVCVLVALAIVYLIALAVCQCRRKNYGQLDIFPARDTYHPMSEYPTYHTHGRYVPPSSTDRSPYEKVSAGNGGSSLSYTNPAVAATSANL", "assay": "flow cytometry on ZR-75-1 cells (protocol 6)", "procedure": "Exponentially growing cells are suspended by incubation with cell dissociation buffer enzyme-free, Hanks-based (Gibco 13150-016) following the manufacturer's instructions. A cell count/viability is done on a dilution of 10 ul cells+Trypan Blue, 10 ul, with a haemocytomer. The suspension is centrifuged and the cell pellet re-suspended in binding buffer at 3×10̂6 per ml. If significant levels of aggregates are present in the cell count, the suspension is filtered to remove aggregates. The cell suspension is dispensed (50 ul/well) in 96 well U-bottom plates and cooled on ice for 10 minutes. Primary antibody (50 ul/well) diluted in binding buffer (typically 1 ug per ml or less) is added to each well and incubated at 4° C. for 1 hour. The microplate is centrifuged 5 min at 300-400 g at 4° C., flicked to remove the supernatant and then the cell pellet re-suspended in 200 uL of wash buffer (PBS, 0.1% sodium azide). Centrifugation and re-suspension are done 4 times in all. After the last centrifugation, cells are re-suspended in 50 uL of binding buffer containing the biotin labelled conjugate 1:250 (kept at −20 C: Biotin-SP-AffiniPure F(ab′)2 Fragment Goat antihuman IgG (H+L); Jackson 109-066-088). Cells are incubated for 1 hour at 4 C, then washed 4 times as before. Cells are resuspended in 50 ul of binding buffer containing Streptavidin, Alexa Fluor® 488 conjugate (Life Technologies s11223) diluted 1:250 and Fixable Viability Dye eFluor@780 (eBioscience 65-0865) diluted 1:2000, The cells are incubated at 4° C. for 1 hour and then washed 3 times, as above. Cells are then re-suspended in PBS if reading immediately or fixed in 100 ul of paraformaldehyde (2% (w/v) in PBS) and analysed with by flow cytometer (Accuri C6), gating on live cells which have a lower Fixable Viability Dye MFI compared to dead cells.\nIgG binding potency to Tn-MUC1 was measured as per protocol 4 and binding to the ZR-75-1 cell line, which expresses Tn-MUC1, was measured as per protocol 6.", "units": {"EC50": "µg/mL"}, "values": [{"binder": "B1", "EC50": 0.0168}, {"binder": "B2", "EC50": 0.0268}, {"binder": "B3", "EC50": 0.0423}, {"binder": "B4", "EC50": 0.00986}, {"binder": "B5", "EC50": 0.0413}, {"binder": "B6", "EC50": 0.0184}, {"binder": "B7", "EC50": 0.0283}]}]}
